Among the data in article PMC13316113, “RNA-induced PRC2 inhibition depends on the sequence of bound RNA” are binding result, binding signal and Kd values, retold here.

Data set [1] concerns the target T1, six-subunit PRC2 (EZH2-EED-SUZ12-RBAP48-AEBP2-JARID2) (UniProt Q15910-2;O75530;Q15022;Q09028;Q6ZN18-2;Q92833 …). The data set can be described thus: UV crosslinking; very low crosslinking efficiency despite saturated binding; EMSA: 50 mM Tris-HCl pH 7.5 (25 C), 100 mM KCl (or LiCl), 2.5 mM MgCl2, 0.1 mM ZnCl2, 2 mM 2-mercaptoethanol, 0.05 mg/ml BSA, 0.05 mg/ml yeast tRNA, 5% glycerol, 30 C 30 min. The settings on record: protein: recombinant; tags: His (EZH2), Strep-GFP (AEBP2, JARID2); TEV treated; AEBP2 retains 7 extra N-terminal aa; copies: 1;1;1;1;1;1; label: 32P; G4. (In general: A gel shift assay detects complexes by their altered migration in electrophoresis.)

Data set [2] has as its target T1, six-subunit PRC2 …. The data set can be described thus: EMSA; 100 mM KCl; EMSA: 50 mM Tris-HCl pH 7.5 (25 C), 100 mM KCl (or LiCl), 2.5 mM MgCl2, 0.1 mM ZnCl2, 2 mM 2-mercaptoethanol, 0.05 mg/ml BSA, 0.05 mg/ml yeast tRNA, 5% glycerol, 30 C 30 min. The settings on record: protein: recombinant, tags: His (EZH2), Strep-GFP (AEBP2, JARID2), TEV treated, AEBP2 retains 7 extra N-terminal aa, copies: 1;1;1;1;1;1, label: 32P 5' (EMSA).

Data set [3] concerns the target T1, six-subunit PRC2 …. Described as above. The settings on record: protein: recombinant, tags: His (EZH2), Strep-GFP (AEBP2, JARID2), TEV treated, AEBP2 retains 7 extra N-terminal aa, copies: 1;1;1;1;1;1, label: 32P 5' (EMSA). The source holds these as a separate data set.
The target of data set [4] is six-subunit PRC2 AEBP2del261-389 (UniProt Q15910-2;O75530;Q15022;Q09028;Q6ZN18-2;Q92833 …, internal_change). The experiment in a line: EMSA; P = 0.05 vs WT; EMSA: 50 mM Tris-HCl pH 7.5 (25 C), 100 mM KCl (or LiCl), 2.5 mM MgCl2, 0.1 mM ZnCl2, 2 mM 2-mercaptoethanol, 0.05 mg/ml BSA, 0.05 mg/ml yeast tRNA, 5% glycerol, 30 C 30 min. The settings on record: protein: recombinant; copies: 1;1;1;1;1;1; label: 32P 5' (EMSA); no G4.

B1: 2G4 (structured_RNA)
RNA: AAAAAAAAAAGGGAAGGGAAGGGAAGGGAACAACAACAACAACAAGGGAAGGGAAGGGAAGGGAA
Consider B1, for which, in data set [1], the binding result is “binds”.
As for UUUUUUUUUUCUCUUUCUCUCCUUCUCUUCCUCUCUCUCCUCUUUCUCUC (ssRNA) [P10], in data set [2] (single strand), the binding signal is ~4 fold weaker than TERRA/Poly(U)/Poly(C).
In general, Kd refers to a measure of binding affinity in units of concentration. For UUUUUUUUUUUUUUUUUUUUUUUUUUUUUUUUUUUUUUUUUUUUUUUUUU (ssRNA) [Poly(U)], the Kd in data set [3] (single strand) turned out to be 28 ± 4 nM.
Turning to AAAAAAAAAAGAGAGAGAUUAGGGUUAGGGUUAGGGUUAGGGAGAGAGAG (structured_RNA) [TERRA], in data set [3] (single intramolecular G4 in K+), the Kd was found to be 18 ± 9 nM.
In the case of AAAAAAAAAAGAGAGAGAUGAGUGUGAGUGUGAGUGUGAGUGAGAGAGAG (ssRNA) [TERRAmut], the Kd in data set [4] came to 112 ± 24 nM; in data set [3] (no G4), 66 ± 15 nM.
As for AAAAAAAAAAGUGUGUGUGUGUGUGUGUGUGUGUGUGUGUGUGUGUGUGU (structured_RNA) [pUG-fold], the binding signal in data set [2] (atypical G4 (pUG-fold: three G quartets and one U quartet)) was ~2 fold weaker than TERRA/Poly(U)/Poly(C).
